{
  "source": "patent US10765761B2",
  "about": "“Nucleic acid condensing peptide, nucleic acid condensing peptide set, nucleic acid delivery carrier, nucleic acid delivery method, cell production method, cell detection method and kit” (KABUSHIKI KAISHA TOSHIBA, priority 2016, dated 2020)",
  "key": {"plasmid vector (pDNA)": {"test_system": "plasmid vector (pDNA)", "assay": "Average particle diameter, polydispersity index and Zeta potential of peptide-nucleic-acid complexes, Example 6", "format": "physicochemical", "settings": "peptide-nucleic-acid complex, total peptide 0.24 mg/ml, pDNA 0.15 mg/ml", "experimental": "Each of the peptides was dissolved into 10 mM-HEPES (pH: 5.4) to prepare several peptide solutions having different peptide concentrations.\nFor the mHP-1, one peptide solution was prepared to have a peptide concentration of (1) 0.24 mg/ml. For the mHP-2, one peptide solution was prepared to have a peptide concentration of (2) 0.24 mg/ml. For the mHP-1 and mHP-2, five peptide solutions were prepared to have a total peptide concentration of 0.24 mg/ml and mixture ratios between mHP-1 and mHP-2 of: (3) 1:1, (4) 1:3, (5) 1:5, (6) 1:7 and (7) 1:9. Meanwhile, plasmid vector (pDNA) was diluted with purified water to prepare a nucleic acid solution having a pDNA concentration of 0.15 mg/ml.\nThe peptide solutions (1) to (7) (100 μL) were prepared in tubes and the nucleic acid solution (200 μL) was dropped and mixed thereto while stirring each solution to condense the nucleic acids, and thus peptide-nucleic-acid complexes were obtained.\nThe peptide-nucleic-acid complexes were investigated in terms of average particle diameter, polydispersity index and Zeta potential using the respective peptide-nucleic-acid solutions. The average particle diameter, polydispersity index and Zeta potential were measured using a zetasizer."}, "[1]": {"assay": "Average particle diameter, polydispersity index and Zeta potential of liposome (Complex), Example 8", "format": "physicochemical", "experimental": "COATSOME/SS-20 (Nippon Oil & Fats), DOPE, cholesterol and DMG-PEG were dissolved into ethanol at a molar ratio of 5:3:1:0.3, to obtain a lipid solution. Five sets of 50 μL of lipid solutions put into tubes were prepared, and 50 μL of peptide-nucleic-acid solutions (1) to (4) and (7) of Example 6 were dropped thereto while stirring each lipid solution, thereby forming liposomes. 400 μL of 10 mM-HEPES (pH: 5.4) was added to each of the liposome solutions to make a total amount of 500 μL (this liposome solution will be referred to as “Complex” hereinafter).\nThe average particle diameter, polydispersity index and Zeta potential of liposome were investigated using the Complex. The average particle diameter, polydispersity index and Zeta potential were measured using a zetasizer."}},
  "data": [
    {"sequence": "RQRQRYYRQRQRGGRRRRRR (Nucleic acid condensing peptide) [mHP-1]", "values": [
      {"measurement": "Average particle diameter (zAve)", "setting": "plasmid vector (pDNA)", "value": 156.6, "unit": "nm"},
      {"measurement": "Polydispersity index (PDI)", "setting": "plasmid vector (pDNA)", "value": 0.190},
      {"measurement": "Zeta potential", "setting": "plasmid vector (pDNA)", "value": "−31.1", "unit": "mV"},
      {"measurement": "Average particle diameter (zAve)", "setting": "[1]", "value": 244.7, "unit": "nm"},
      {"measurement": "Polydispersity index (PDI)", "setting": "[1]", "value": 0.193},
      {"measurement": "Zeta potential", "setting": "[1]", "value": 31.6, "unit": "mV"}
    ]}
  ]
}
